# Reference: patent US20160194407A1 (AstraZeneca / MedImmune, published 2016)
# Numbering of substitutions follows the chain as printed. Names and notes keep the numbering of the source.
# B1: CD730004 antibody (antibody, IgG1, V domains shown)
# VH: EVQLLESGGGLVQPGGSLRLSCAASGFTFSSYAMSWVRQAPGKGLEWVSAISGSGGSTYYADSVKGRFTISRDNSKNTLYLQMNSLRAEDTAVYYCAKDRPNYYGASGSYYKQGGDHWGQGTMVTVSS
# VL: NFMLTQPHSVSESPGQTVTISCTRSSGSIASKYVQWYQKRPGSSPTTVIYEDTQRPSGVPDRFSGSIDISSNSASLTISGLRTEDEADYYCQSYDSTNWVFGGGTKVTVL
# notes: IgG1
# B2: CD730042 antibody (antibody, IgG1, V domains shown)
# VH: GVQLVQSGGGLVQPGGSLRLSCAASGFTFSSYGMHWVRQAPGKGLEWVAVISYDGSIKYYADSVKGRFTISRDDSKNALYLQMNSLRAEDTAVYYCSTLSGSYGYFDYWGRGTLVTVSS
# VL: QSVLTQPASVSGSPGQSITISCAGTSSDVGGYNYVSWYQQHPGKAPKLMIYEGSKRPSGVSNRFSGSKSGNTASLTISGLQAEDEADYYCSSYTTRSTRVFGGGTKLTVL
# notes: IgG1
# B3: CD730047 antibody (antibody, IgG1, V domains shown)
# VH: EVQLVQSGGGVVQPGRSLRLSCAASGFTFSSYGMHWVRQAPGKGLEWVAVISYDGSIKYYADSVKGRFAISRDNAKNTLYLQMNSLRREDTAMYYCASGLTGVAGALGVWGRGTLVTVSS
# VL: QSVLTQPPSASGAPGQRVTISCSGSSSNIGSNTVNWYQRLPGAAPQLLIYNNDQRPSGIPDRFSGSKSGTSGSLVISGLQSEDEADYYCAAWDDSLSGNVFGTGTKVTVL
# notes: IgG1
# B4: CD730011 antibody (antibody, IgG1, V domains shown)
# VH: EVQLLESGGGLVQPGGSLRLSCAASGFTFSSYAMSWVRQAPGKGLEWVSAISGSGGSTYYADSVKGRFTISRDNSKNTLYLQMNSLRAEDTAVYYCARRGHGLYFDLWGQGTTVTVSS
# VL: NFMLTQPHSVSESPGKTVTISCTRSSGSIASKYVQWYQQRPGSSPMAVIYKDNQRSSGVPDRFSGSIDSSSNSASLTISGLKPEDEADYYCQSYDASNYYVFGTGTKVTVL
# notes: IgG1; also called CD7300011
# B5: CD730021 antibody (antibody, IgG1, V domains shown)
# VH: QVQLQESGPGLVRPSETLSLTCTVSGGSISSSSYYWAWVRQSPGKGLEWIGNIYYRGSTYYNPSLKSRVTMSVDMSKHQFSLKLSSLNAADTAVYYCASLYSGTYVFDYWGRGTLVTVSS
# VL: QSVLTQPPSASGTPGQRVTISCSGSRPNIGGNTVNWYQQLPGAAPKLLIYSNSQRPSGVPDRFSGSKYGTSASLAISGLQSDDEADYYCGTWDDSLNGPVFGRGTKLTVL
# notes: IgG1
# B6: CD730010 antibody (antibody, IgG1, V domains shown)
# VH: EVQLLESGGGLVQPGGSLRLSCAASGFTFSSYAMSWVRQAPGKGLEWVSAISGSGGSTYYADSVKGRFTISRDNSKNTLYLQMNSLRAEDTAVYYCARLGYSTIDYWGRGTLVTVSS
# VL: LPVLTQPPSVSGTPGQRVTISCSGSLSNIGRNPVNWYKQVPGTAPKLLIYLNNQRPSGVPDRFSGSKSGTSASLAISGLQSEDEADYYCATWDDSLNGWLFGGGTKLTVL
# notes: IgG1; tested as IgG1-TM (L234F, L235E, P331S); also called clone 10
# B7: CD730046 antibody (antibody, IgG1, V domains shown)
# VH: QVQLVQSGGGVVQPGRSLRLSCAASGFTFSSYGMHWVRQAPGKGLEWVAVISYDGSIKYYADSVKGRFTISRDNSKNSLFLQMNSLRDDDTATYYCARGHLLRIGDIFYYSLDVWGQGTLVTVSS
# VL: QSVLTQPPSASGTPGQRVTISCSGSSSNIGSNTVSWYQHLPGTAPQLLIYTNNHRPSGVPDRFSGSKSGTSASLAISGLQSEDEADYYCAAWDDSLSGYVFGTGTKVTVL
# notes: IgG1
# B8: CD730008 antibody (antibody, IgG1, V domains shown)
# VH: EVQLLETGGGLVQPGGSLRLSCAASGFTFSSYAMSWVRQAPGKGLEWVSAISGSGGSTYYADSVKGRFTISRDNSKNTLYLQMNSLRAEDTAVYYCARGNYGNLDHWGKGTLVTVSS
# VL: QSVLTQPPSVSVSPGQTASITCSGDKVGDKYASWYQQKPGQSPVLVIYQDRKRPSGIPERFSGSNSGNTATLTISGTQPMDEADYYCQAWDSSHWVFGGGTKLTVL
# B9: CD730002 antibody (antibody, IgG1, V domains shown)
# VH: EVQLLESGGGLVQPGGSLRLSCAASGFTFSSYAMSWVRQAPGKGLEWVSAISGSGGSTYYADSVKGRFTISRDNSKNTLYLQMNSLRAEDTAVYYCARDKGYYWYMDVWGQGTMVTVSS
# VL: B8 VL with S19T, Q49E, R51T, G56R, P79A, M80L, Y86F, S92T, H94F
# notes: IgG1; tested as IgG1-TM; also called clone 2
# B10: CD730010 GL10 (antibody, V domains shown)
# VH: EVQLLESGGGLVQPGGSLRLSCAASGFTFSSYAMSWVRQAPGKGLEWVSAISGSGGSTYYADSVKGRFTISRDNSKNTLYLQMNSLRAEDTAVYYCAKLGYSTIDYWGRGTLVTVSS
# VL: B6 VL
# B11: 73combo2 (C2 + GRVE + HPT) (antibody, IgG1, V domains shown)
# VH: EVQLLESGGGLVQPGGSLRLSCAASGFTFSSYAYSWVRQAPGKGLEWVSLIWGSWGSTYYADSVKGRFTISRDNSKNTLYLQMNSLRAEDTAVYYCARLGYGRVDEWGRGTLVTVSS
# VL: QSVLTQPPSASGTPGQRVTISCSGSLSNIGRNPVNWYQQLPGTAPKLLIYLDNLRLGGVPDRFSGSKSGTSASLAISGLQSEDEADYYCATWDDSHPGWTFGGGTKLTVL
# notes: also called clone 10 combo2
# B12: G10 (antibody, IgG1, V domains shown)
# VH: B11 VH with L50A, W52S, S57R, G102S, R103T, V104I, E106L
# VL: B11 VL with P33D, D52N, L54Q, H96L, P97K, T100L
# notes: also called clone 10 G10
# B13: C2 (antibody, IgG1, V domains shown)
# VH: B11 VH with G102S, R103T, V104I, E106M
# VL: B11 VL with H96L, P97K, T100L
# notes: also called clone 10 C2
# B14: C1 (antibody, IgG1, V domains shown)
# VH: B11 VH with L50A, W52S, W55G, G102S, R103T, V104I, E106K
# VL: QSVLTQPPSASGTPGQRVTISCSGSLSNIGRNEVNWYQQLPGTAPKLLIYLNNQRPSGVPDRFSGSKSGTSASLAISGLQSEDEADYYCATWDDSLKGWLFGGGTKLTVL
# notes: also called clone 10 C1
# B15: 73combo5 (G10 + GRVE + HPT) (antibody, IgG1, V domains shown)
# VH: B11 VH with L50A, W52S, S57R
# VL: B11 VL with P33D, D52N, L54Q
# notes: also called clone 10 combo5
# B16: 73combo1 (C1 + GRVE + HPT) (antibody, IgG1, V domains shown)
# VH: B11 VH with L50A, W52S, W55G
# VL: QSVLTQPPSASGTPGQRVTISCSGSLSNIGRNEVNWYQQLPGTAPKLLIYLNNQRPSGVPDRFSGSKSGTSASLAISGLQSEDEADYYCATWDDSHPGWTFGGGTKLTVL
# notes: also called clone 10 combo1
# B17: CD730002 2C5 (antibody, IgG1, V domains shown)
# VH: EVQLLESGGGLVQPGGSLRLSCAASGFTFSSYAMSWVRQAPGKGLEWVSAISGSGGSTYYADSVKRRFTISRDNSKNTLYLQMNSLRAEDTAVYYCARDKGYYWYMDVWGQGTMVTVSS
# VL: B8 VL with Q49E, R51T, P54L, P79A, S92T, H94F
# notes: IgG1; also called clone 2C5 antibody
# Molecular target: cynomolgus CD73 (form not stated) (cynomolgus)
# Test: Binding, Cyno; assay not described
row,Binder,1/EC50 [nM⁻¹]
1,B1,2e-06
2,B2,0.0014
3,B3,0
4,B4,0.0027
5,B5,0.0012
6,B6,0.0033
7,B7,0.01
8,B8,0.0011
9,B9,0.2

# Molecular target: T1, recombinant human CD73 protein (form not stated) (human, UniProt P21589 27-549)
# T1 construct: also called huCD73; rCD73
# T1 sequence: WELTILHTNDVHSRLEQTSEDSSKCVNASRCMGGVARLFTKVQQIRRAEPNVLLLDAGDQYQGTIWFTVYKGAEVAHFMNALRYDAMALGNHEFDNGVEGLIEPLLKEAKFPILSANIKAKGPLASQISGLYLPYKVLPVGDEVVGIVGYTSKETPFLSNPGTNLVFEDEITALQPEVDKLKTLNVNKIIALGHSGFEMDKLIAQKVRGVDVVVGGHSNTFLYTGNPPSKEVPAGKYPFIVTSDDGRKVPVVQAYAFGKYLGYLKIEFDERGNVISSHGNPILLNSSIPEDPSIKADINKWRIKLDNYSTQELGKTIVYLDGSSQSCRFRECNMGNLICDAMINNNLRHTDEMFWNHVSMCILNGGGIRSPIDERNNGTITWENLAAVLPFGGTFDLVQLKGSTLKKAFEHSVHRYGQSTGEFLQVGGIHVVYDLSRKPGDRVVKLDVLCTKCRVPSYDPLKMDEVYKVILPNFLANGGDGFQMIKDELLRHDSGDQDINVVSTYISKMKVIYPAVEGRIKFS
# Test: assay and target not stated in Table 11 (taken as human CD73)
row,Binder,EC50 [nM]
1,B6,69
2,B10,205

# Molecular target: T2, human CD73 on cells (human, UniProt P21589 27-549)
# T2 sequence: T1 sequence
# Test: cell-based or functional assay
row,Binder,"1/EC50, Enzyme Inhibition, MDA-MB-231 [nM⁻¹]"
1,B8,0.011

# Molecular target: T3, cynomolgus CD73 on cells (cynomolgus)
# T3 construct: whole, on cells; also called native CD73 on MK-1 cells (cynomolgus)
# Test: flow cytometry on MK-1 cells, IgG1-TM
row,Binder,Kd [nM]
1,B11,0.074
2,B12,0.258
3,B13,0.105
4,B14,0.16
5,B15,0.078
6,B9,0.052
7,B16,0.09
8,B17,0.063

# Molecular target: T2, human CD73 on cells
# Test: cell-based or functional assay
# Remark: another data set of the same source
Binder,"FabZAP internalization, EC50, MDA-MB-231 [nM]","FabZAP internalization, max toxicity, MDA-MB-231 [%]"
B6,0.158,84

# Molecular target: T4, cynomolgus CD73 extracellular domain (ECD) (cynomolgus)
# T4 construct: extracellular domain; also called Cynomolgus CD73 ECD; cyno CD73 (SPR Proteon)
# Test: SPR (Proteon), IgG1-TM
row,Binder,Kd [nM]
1,B6,1.92
2,B14,0.012
3,B9,0.015
4,B16,0.008
5,B17,0.009
